Laboratory results: the nanobody polyreactivity screen of Harvey et al. (2022)

assay: yeast display, Sf9 membrane polyspecificity reagent, FACS + sequencing; frameworks hold sequencing errors
Outline: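 After 36–48 hours of galactose induction, yeast (Saccharomyces cerevisiae BJ5465) displaying a synthetic nanobody library were stained at 4 °C for 1 hour with 10% biotinylated, detergent-solubilized Sf9 membrane reagent. Streptavidin microbeads enriched the stained cells before FACS sorting into low and high (top ~1%) gates on anti-HA and streptavidin fluorescence. Each clone's polyreactivity label reflects its gate of origin.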

Sequence	polyreactivity (PSR sort gate)
QVQLVVSGAGLVQAGGSLRLSCAASGRNVVRNAMGWSRQAPGNEREWVAAITSGGRTYYAVSVKGRFTISRDNAKNTVYLQMTSLTPEDTAVYSCSTETRPHSVKNSPISLPDDYWGQGTQETVSS	low polyreactivity
QVQLVVSGGGLVQAGGSLRLSCAASGFIFYRYAMGWYRQAPGKEWELVAAISRSGGTTYYADSVKGRFTISRDNAKNTVYLQKNSLKPEDTAVYYCNVKRGTIGGYYYWGQGTQVTVSS	high polyreactivity
QVQLVVSGGGLVQAGGSLRLSCAASGNTFTKYAMGWYRQAPGKERELVAGITRGGSTNYADSVKGRFTISRDNAKNTVYLQMNSLIPEDTAVYYCNARPVYGSRFYSAVRMEYWGQATQVTVSS	low polyreactivity
QVQLVVSGGGLVQAGGSLRLSCAASGRTFRSYAMGWYRQEPGKERELVAAISDGGSTNYADSVKGRFTISRDNAKNTVYLQMNSLKPEDTAVYYCAAEFFFAVFRFYYWGQGTQVTVSS	low polyreactivity
QVQLVVSGGGLVQAGGSLRLSCAASGSIFAQNVMGWYRQAPGKERELVAAISYCGGTTYYADSVKGRFTISRDNAMNSVYLQMNSLKPEDTAVYYCAAEFGVYEYDYWGQGTQVTVSS	low polyreactivity
QVQLVVSGGGLVQAGGSLRLSCAASGSIFSRYTMGWYRVAPGKERELVAAITASGTRTYYADSVKGRFTISRDNAKNTVYLQMNSLKPEDTAVYYCNVVRGSRDVTYGYNYWGQGTQVTVSS	high polyreactivity
QVQLVVSGGGLVQAGGSLRLSCAASGSTVVTYAMGWYRQAPGKERELVAAISRSGTSTYYADSVKGRYTISRDNAKYTVYLHLPSRKPEDTAVYDCAAYGPRVNGEIGREYYYWGQGTQVTVSS	low polyreactivity
QVQLVVSGGGLVQAGGSLRLSFAASGFIFRYYGGGWYTPAPGKERELVAAITSTGRRYYADSVKGRFTISRDNAKNTVYLQMNSLKPEDTAVYYCAKAWLRWCEDYWGQGTQVTVSS	low polyreactivity
QVQLVVSGVGLVQAGGSLRLSCAASGRIFSYYAMGWYRQAPGKEREFVATNSGSGGSTYYADSVKGRFTISRDNAKNTVYLEMNSLKPEDTAVYYCKARSYSYWSNWRNAGSYDYWGQGTQVTVSS	high polyreactivity
QVQMQESGGGTVMAGGSLRLSCAASGTIFVRLDMGSYRQAPGKEREFVATIGSGSSTYYADSVKGSFTISRDNVNKSVYLQMNSLKPEDTAVYYCAVSAAEQCRDYYWDQGTQVTVSS	low polyreactivity
QVQMQESRGGLVQAGGSLRLSCAASGYISYLDFMGWYRQAPGKERELVAGITTGATTNYADSVKGRFTISRDNGKNIVYQQMNSLKPEDTAVYFCAVIGGDTRGHPYWGQGTQLTVSS	low polyreactivity
QVQPQESAGGLVQAGGSLLQSSAASAYIFPYYSMGWYRQAPGKERGLVACIAAGTTTNYADSVKGRFTISRDNAKNTVYLQMKSLKPEDAAVYYCAALKAFNTGHWYWGQGTQVTVSS	low polyreactivity
QVQPQESGGGLVQAGGSLRLRCAASGTIFAFQTMGSYRQAPGKERELVASITYGSSTNYADSVKGRFTISRDNAKNTVYLQMNSLKPEDTAVFYCAVPQAQYYYDYWGQGTQVTVSS	high polyreactivity
QVQPVESGGGLVQAGGSLRLSCAASASTFYYYAMGWSRQAPGKERELVASITTGGGSTYYADSVKGRFTISRDNAKKTVYLQMNSLNPEDTAVYYCNAGRYGSNLEYWGQGTQVTVSS	low polyreactivity
QVQPVESGGGLVQAGGSLRLSCADSGSIIYYNAMGWYRQAPGKEREFVAAITSSGGSTYADSVKGRFTISRDNGKNTVYIQMNSMKPEDTAVYYCATVAHGLLSGSGYIYAYDYWGQGTQVTVSS	low polyreactivity
QVQQQESGGGLEQAGGSLRLSCAASGTIFQLTVMGRYRQAPGKERELVASIDYGGNTNYADSVKGRFTISRDNAKKTVYLQMNSLKPEDTAVYYCAASSDSWTTHPYWGQGTQVTVSS	low polyreactivity
QVQQQESGGGLVQAGGSLRLSCAASGNIFRFTRMGWYRQGPGQVREFVAGIGDGSTTYYADSVKGRFTISRDNAKNTVHLQMNSQKPEDTAVYSCAVGDSGFVHHPYWGQGTQVTVSS	high polyreactivity
QVQQQESGGGLVQAGGSLRLSCAASGTIFQLTVMGRYRQASGKERELVASIDYGGNTNYADSVKGRFTISRDNAKNTVYLQMNSLKPEDTAVYFCAASSDSWTTHPYWGQGTQVTVSS	low polyreactivity
QVQQQESGGGLVQASGSLRLSCAASGNIFPDYVMGWYRQGPGQEREFVANITGGSTTNYADSVKGRFSISRDNAKNTVYLQMNCLKQEDTAVYYCAVNFGTVVLYLYWGQGTQVTVSS	high polyreactivity
QVQQQESGGGQVQAGGSLRLSCAASGTIFLYAFLGRYRQAPGKERELVAAIDVGTTTNYADSVKGRFTIRRDNANNTVYLQMNSLKPEDTAVYYCAATLGYLDDLGYWGQGTQVTVSS	low polyreactivity
QVQQVESGGGLVQAGGSLRLSCAASGTFGYYAMGWYRQAPGKERELVAGITWSGGSTYYADSVKGRFTISRDNAKNTVYLQMNSLKPEDTAVYYCATSSYTGYWGQGTQVTVSS	low polyreactivity
QVQREESGGGLVQAGGSLRLSCPASGITFWGYVMGWYRQAPGKERELVAAISSSGGRTYYADSVKGRFTISRDNAKNTVYLQMNSMKPEDTAVYYCAARFLYANGDSVDYDYWGQGTQVTVSS	high polyreactivity

Sequence	polyreactivity (PSR sort gate)
QVQRVESAAGLVQAGGSLRLSCAASGFIIVYYSMGWYRQAPGKERELVAAISRRGGSTYYADSVKGRFTISRDNAKNTVYLQMNSLKPEDTAVYYCNAVNVLAPSRGRRYDYWGQGTQVTVSS	high polyreactivity
QVQRVESAGGLVQAGVSLRLSCAASGITFASNTMGWYRQAPGKARELVAAITRGDNTYYADSVKGRFTISRDNAKNTVYLHMNSLKPEDTAVYYCATEGYEIQYEHDYWGEGTQVTVSS	low polyreactivity
QVQRVESAGRLVQAGGSLRLSCAPSGYTFYGYAMGWYRQAPGKESELVAAISGSGGSTYYADSVKGRFTMSRDNAKNTVYLQMNSLIPEDTAVYYCNKARYAIYRGDGYDYWGQGTEVTVSS	high polyreactivity
QVQRVESGGALVQAGGSLRLSCAASGSIIGINAMGWYRPAPGKERELVAAINGGGSTYYADSVKGRFTISRDNAKNTVYLQMHSLKPEDTAVYYCAAEWGTSWYDYRGQGTQVTVSS	low polyreactivity
QVQRVESGGGLFQAGGSLRLSCAASGSTFGYYAMGWYRQAPGKERELVPAISGSGTSTNYADSVKGRITISRDNAKNTVYLQMNSLKPEDTAVYYCATRYRYTGGGYYYRGQGTQVTVSS	low polyreactivity
QVQRVESGGGLVQAGGRLRLSCAASASTLYSYAMGWNRQAPGKEREFVATISQIGVRTYYADSVKGRFTISRDNAKNTVYLQMNSLKPEDTAVYYCAAGYRFTTYLVYNYWGQGTQVTVSS	high polyreactivity
QVQRVESGGGLVQAGGSHPLSCAASGITLRYYAMGWYRQAPGKERELVAAISGRGGGTYYADSVKGRFTISRDNAKNTVYLQMNSLKPEDTAVYYCNAVGQQQVEYEYWGQGTQVTVSS	high polyreactivity
QVQRVESGGGLVQAGGSHRLSCAASGSIFVVYTMGWYRPAPGKERELVAAITQNGGSSTYYADSVKGRFTISRDNAKNTVYLQMNSLKPEDTAVYYCNKDILSPVVRIFKYGYDMDYWGQGTQETVSS	low polyreactivity
QVQRVESGGGLVQAGGSLGLSCAASGFTFIKYAMGWYRQAPGKEREFVASITYRGGSTYYADSVKGRLTISRDNAKNTVYLQMNSLKPEDTAVYYCAAGGPGRRYRVDYWGQGTQVTVSS	high polyreactivity
QVQRVESGGGLVQAGGSLLLSCAPSGSIFSDNSMGWYRQAPGKERELVAAITSGGDTKYADSVKGRFTISRDNAKNTVYLQMNSLKPEDTAFYYCAAGIRYQASFDSWGQGTQVTVSS	low polyreactivity
QVQRVESGGGLVQAGGSLRISCAASGRTFRKYAMGWYRQARGKERELGAAMSWSGGSTYYANSVKGRFPISRDKPKNTVYLQMNSLKPEETAVYYCASDVDRFYTYKYDYWGQGTQVTVSS	low polyreactivity
QVQRVESGGGLVQAGGSLRLSCAASGFIISWYAMGWSRQAPGKERELVAAISSGGSTTYADSVKGRFTISRDNAKNTVSLQMNSLKPEDTAVYYCNADQVYGYNYWGQGTQVTVSS	high polyreactivity
QVQRVESGGGLVQAGGSLRLSCAASGFILNQYAMGWYRQAPGKASELVAAISNGGSTNYADSVKGRFTISRDNAKNTVYLQMNSLKPEDTAVYYCAKDQSLTYSSLWGYDYWGQGTQVTVSS	low polyreactivity
QVQRVESGGGLVQAGGSLRLSCAASGFTFTDYAMGWYRQAPGKERELVAAITIGGGRTYYADSVKGRFTISRDNAKNTVYLQMNSLKPEDTAVYYCNARYQVPYGYWGQGTQVTVSS	low polyreactivity
QVQRVESGGGLVQAGGSLRLSCAASGGIVSAYAMGWYRQAPGKEREFVASISRRGGSTYYADSVKGRFTISRDNAKNTVYFQMNSLKREDTAVSYCNARKYFEKSREYWGQGTQVTVSS	high polyreactivity
QVQRVESGGGLVQAGGSLRLSCAASGIFYWYGMGWYRQAPGKDRELVASITGGGRTYYADSVKGRFTISRDNAKNTVYLQMNSLKPEDTAVNYCATRYWGGLPRRWYDYWGQGTQVTVSS	high polyreactivity
QVQRVESGGGLVQAGGSLRLSCAASGIIFPHNAMGWYRQAPGKERELVATISRSGARTYYADSVKGRFTISRDNAKNTVYLQMNSLKPEDTAVYYCAVQRLVYVYGAYDYWGQGTQVTVSS	high polyreactivity
QVQRVESGGGLVQAGGSLRLSCAASGLTFPSYAMGWYRQAPGKERELVATISNGSSTYYADSVKGRFTISRDNAKNTVYLQLNSLKPEDTAVYYCAKDYYYSRNPLYGHDYWGQGSQVTVSS	low polyreactivity
QVQRVESGGGLVQAGGSLRLSCAASGRIFRGNAMGWYRQAPGKERELVAAITSSGDSTFYADSVKGRFTISRDNANNTVYLQMNSLKPEDTAVYYCNALVQGKEYYWGQGTQVTVSS	high polyreactivity
QVQRVESGGGLVQAGGSLRLSCAASGRTFGPNAMGCYRQSPGKERELVAAITSGGRTYYADSVKGRFTISRDNAKNTVYLQMNSLKPEDTAVYYCAASYRWRSSGKGKYDYWGQGTQVTVSS	high polyreactivity
QVQRVESGGGLVQAGGSLRLSCAASGRTFGYNAMGWYRQAPGKERELVAAISSSGGSTYYADSVKGRFTISRDNAKNTVYLQMNSLKPEDTAVYYCATQGYSWAHGSDYWGQGTQVTVSS	low polyreactivity
